These results are taken from US9109237B2, “Method of preparing piceatannol using bacterial cytochrome P450 and composition therefor” (priority 2008, dated 2015).

One data set concerns the target T1, human CYP1A2 (Homo sapiens, UniProt P05177).
T1 sequence (P05177 1-516): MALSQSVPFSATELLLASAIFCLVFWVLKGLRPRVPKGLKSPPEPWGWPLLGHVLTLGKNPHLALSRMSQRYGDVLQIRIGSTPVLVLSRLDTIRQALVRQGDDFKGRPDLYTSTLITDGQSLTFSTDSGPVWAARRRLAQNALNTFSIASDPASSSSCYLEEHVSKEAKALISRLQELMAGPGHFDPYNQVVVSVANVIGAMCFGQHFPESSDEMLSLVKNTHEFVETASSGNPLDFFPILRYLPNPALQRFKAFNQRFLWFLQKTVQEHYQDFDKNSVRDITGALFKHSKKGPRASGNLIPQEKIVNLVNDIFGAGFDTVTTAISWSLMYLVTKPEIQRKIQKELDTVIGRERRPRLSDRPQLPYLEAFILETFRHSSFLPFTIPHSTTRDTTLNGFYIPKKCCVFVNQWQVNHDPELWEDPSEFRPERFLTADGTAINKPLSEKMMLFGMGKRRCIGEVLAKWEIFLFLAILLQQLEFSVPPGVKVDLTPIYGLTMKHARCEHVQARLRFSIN
The note with it: cited from earlier work.

Data set [1] can be described thus: Kinetic parameters of piceatannol formation (3'-hydroxylation of resveratrol). It is filed as biochemical. As to the method:
Oxidation of trans-resveratrol, a substrate of human CYP1A2, by CYP102A1 was identified. Typical steady-state reactions for trans-resveratrol hydroxylation included 50 pmol P450 BM3 in 0.25 ml of a 100 mM potassium phosphate buffer (pH 7.4) were performed along with a specified amount of a substrate. To determine the kinetic parameter of several CYP102A1 mutants, 2 to 100 μM of trans-resveratrol was used. An NADPH-generating system was used to initiate reaction solutions (final concentrations: 10 mM glucose 6-phosphate, 0.5 mM NADP+, and 1 IU yeast glucose 6-phosphate per ml). Trans-resveratrol stocks (20 mM) were prepared in DMSO and diluted into the enzyme reactions with the final organic solvent concentration <1% (v/v). […]
After centrifugation of the reaction mixture, the supernatant was analyzed by HPLC (Piver et al. 2004). […] Eluates were detected by UV rays at 320 nm.
Kinetic parameters (Km and kcat) were determined using nonlinear regression analysis with GraphPad PRISM software (GraphPad, San Diego, Calif., USA). The data were analyzed using the standard Michaelis-Menten equation: v=kcat[E][S]/([S]+Km), where the velocity of the reaction is a function of the rate-limiting step in turnover (kcat), the enzyme concentration ([E]), substrate concentration ([S]), and the Michaelis constant (Km).

The nature of data set [2]: Resveratrol metabolite profile by HPLC and GC-MS. The data set is classed as biochemical. The note with it: HPLC, UV 320 nm. How it is done: (§1) Oxidation of trans-resveratrol, a substrate of human CYP1A2, by CYP102A1 was identified. Typical steady-state reactions for trans-resveratrol hydroxylation included 50 pmol P450 BM3 in 0.25 ml of a 100 mM potassium phosphate buffer (pH 7.4) were performed along with a specified amount of a substrate. To determine the kinetic parameter of several CYP102A1 mutants, 2 to 100 μM of trans-resveratrol was used. An NADPH-generating system was used to initiate reaction solutions (final concentrations: 10 mM glucose 6-phosphate, 0.5 mM NADP+, and 1 IU yeast glucose 6-phosphate per ml). Trans-resveratrol stocks (20 mM) were prepared in DMSO and diluted into the enzyme reactions with the final organic solvent concentration <1% (v/v). Reactions were generally incubated for 10 min at 37° C., and terminated with 105 μl of ice-cold acetic acid/methanol (95/5, v/v).
After centrifugation of the reaction mixture, the supernatant was analyzed by HPLC (Piver et al. 2004). Samples (30 μl) were injected into a Gemini C18 column (4.6 mm×150 mm, 5 μm, Phenomenex, Torrance, Calif.). The mobile phase A was water containing 87 mM of 0.5% acetic acid/acetonitrile (95/5, v/v); whereas the mobile phase B was acetonitrile/0.5% acetic acid (95/5, v/v). […] Eluates were detected by UV rays at 320 nm. […]

Data set [3] in a line: Rates of piceatannol formation (trans-resveratrol hydroxylation) at fixed substrate concentration, HPLC. It is filed as biochemical. The note with it: fixed substrate concentration 100 μM trans-resveratrol. How it is done:
as §1
After centrifugation of the reaction mixture, the supernatant was analyzed by HPLC (Piver et al. 2004). Samples (30 μl) were injected into a Gemini C18 column (4.6 mm×150 mm, 5 μm, Phenomenex, Torrance, Calif.). […] Eluates were detected by UV rays at 320 nm.
The ability of wild-type P450 BM3 and mutants of P450 BM3 to oxidize trans-resveratrol was measured at a fixed substance concentration (100 μM).

For `Oc1cc(O)cc(C=Cc2ccc(O)c(O)c2)c1` [Piceatannol, 3,5,3′,4′-tetrahydroxystilbene], the “Inhibition of human CYP1A2 (in words)” value on human CYP1A2 was “potent inhibitor”. As to `Oc1ccc(C=Cc2cc(O)cc(O)c2)cc1` [Resveratrol, 3,4′,5-trihydroxystilbene], at human CYP1A2, the “Inhibition of human CYP1A2 (in words)” value is “substrate and inhibitor”.

B1: human CYP1A2: Human cytochrome P450 1A2, prepared as disclosed by Kim et al. (2008c); comparison enzyme (protein, UniProt P05177 2-516, looked up)
Cytochrome P450 1A2: ALSQSVPFSATELLLASAIFCLVFWVLKGLRPRVPKGLKSPPEPWGWPLLGHVLTLGKNPHLALSRMSQRYGDVLQIRIGSTPVLVLSRLDTIRQALVRQGDDFKGRPDLYTSTLITDGQSLTFSTDSGPVWAARRRLAQNALNTFSIASDPASSSSCYLEEHVSKEAKALISRLQELMAGPGHFDPYNQVVVSVANVIGAMCFGQHFPESSDEMLSLVKNTHEFVETASSGNPLDFFPILRYLPNPALQRFKAFNQRFLWFLQKTVQEHYQDFDKNSVRDITGALFKHSKKGPRASGNLIPQEKIVNLVNDIFGAGFDTVTTAISWSLMYLVTKPEIQRKIQKELDTVIGRERRPRLSDRPQLPYLEAFILETFRHSSFLPFTIPHSTTRDTTLNGFYIPKKCCVFVNQWQVNHDPELWEDPSEFRPERFLTADGTAINKPLSEKMMLFGMGKRRCIGEVLAKWEIFLFLAILLQQLEFSVPPGVKVDLTPIYGLTMKHARCEHVQARLRFSIN
With B1, the “Kinetic parameters, result in words” value in data set [1] was “kinetic parameters could not be obtained”. Besides, in data set [2], the “Metabolites produced on oxidation of resveratrol” value is “two major metabolites: piceatannol and other hydroxylated products”.

B2: WT: BM3 wild type; bacterial cytochrome P450 BM3 (CYP102A1) from Bacillus megaterium, SEQ ID NO:16 (protein, listed as Bacillus megaterium)
chain: TIKEMPQPKTFGELKNLPLLNTDKPVQALMKIADELGEIFKFEAPGRVTRYLSSQRLIKEACDESRFDKNLSQALKFVRDFAGDGLFTSWTHEKNWKKAHNILLPSFSQQAMKGYHAMMVDIAVQLVQKWERLNADEHIEVPEDMTRLTLDTIGLCGFNYRFNSFYRDQPHPFITSMVRALDEAMNKLQRANPDDPAYDENKRQFQEDIKVMNDLVDKIIADRKASGEQSDDLLTHMLNGKDPETGEPLDDENIRYQIITFLIAGHETTSGLLSFALYFLVKNPHVLQKAAEEAARVLVDPVPSYKQVKQLKYVGMVLNEALRLWPTAPAFSLYAKEDTVLGGEYPLEKGDELMVLIPQLHRDKTIWGDDVEEFRPERFENPSAIPQHAFKPFGNGQRACIGQQFALHEATLVLGMMLKHFDFEDHTNYELDIKETLTLKPEGFVVKAKSKKIPLGGIPSPSTEQSAKKVRKKAENAHNTPLLVLYGSNMGTAEGTARDLADIAMSKGFAPQVATLDSHAGNLPREGAVLIVTASYNGHPPDNAKQFVDWLDQASADEVKGVRYSVFGCGDKNWATTYQKVPAFIDETLAAKGAENIADRGEADASDDFEGTYEEWREHMWSDVAAYFNLDIENSEDNKSTLSLQFVDSAADMPLAKMHGAFSTNVVASKELQQPGSARSTRHLEIELPKEASYQEGDHLGVIPRNYEGIVNRVTARFGLDASQQIRLEAEEEKLAHLPLAKTVSVEELLQYVELQDPVTRTQLRAMAAKTVCPPHKVELEALLEKQAYKEQVLAKRLTMLELLEKYPACEMKFSEFIALLPSIRPRYYSISSSPRVDEKQASITVSVVSGEAWSGYGEYKGIASNYLAELQEGDTITCFISTPQSEFTLPKDPETPLIMVGPGTGVAPFRGFVQARKQLKEQGQSLGEAHLYFGCRSPHEDYLYQEELENAQSEGIITLHTAFSRMPNQPKTYVQHVMEQDGKKLIELLDQGAHFYICGDGSQMAPAVEATLMKSYADVHQVSEADARLWLQQLEEKGRYAKDVWAG
In the case of B2, in data set [3], the “Rate of piceatannol formation” value is recorded as 0.22 ± 0.01 nmol product/min/nmol P450. Besides, in data set [2], the “Metabolites produced on oxidation of resveratrol” value is “only one major metabolite”.
